Data on 16 sequences can be found in the DeepSol protein solubility set.

A short description of the series: soluble on expression in E. coli; label from the status in PepcDB or PDB records.
With “MGSDKIHHHHHHMIRETRQIHVGNVAIGGGAPCSVQSMCNTDTRDVAATLSQVLSLSSAGCEIVRCAVPDMAAAEALGEIKRQSPIPVIADIHFDYRLALRVLEGGIDGLRLNPGNIGERWKVEEVVKAARERLVPIRIGVNAGSLEKELLEKYGHPTAEAMVESALGHVRILEDIGYDQIKISLKASDVMKTVEAYRLLAQKVDYPLHIGITEAGTIFSGTIKSSVGLGILLADGIGDTMRVSLTGDPVDEVRVGFEILKALGLRQRGINFVSCPTCGRCQINLIGVAQEVENRLAAIDTPLTVAVMGCVVNGPGEAREADVGIAGGKGEGLLFRHGEIVRKVPEAEMADALIAEVEQMAKEKTHS”, the “soluble on expression in E. coli” value is given as “not soluble”.
“GQYTFSMPSDSHVSSCSEDWVGYQRKCYFISTVKRSWTSAQNACSEHGATLAVIDSEKDMNFLKRYAGREEHWVGLKKEPGHPWKWSNGKEFNNWFNVTGSDKCVFLKNTEVSSMECEKNLYWICNKPYK”: the “soluble on expression in E. coli” value was “soluble”.
As to “MFPVVDDVKAKELGLEVVYNLELPLRPERQIYRNLEDLLPKDVVEKVGRLDIVGDIAIISIPDELMPRKGVIVEAIRKLYPKIKVIARRGFHTGVYRVRRLEVIWGENRLQTIHKENGVLLKIDLSKVFFNPRMKGERYRLAQLIKDGERILIPFAGVLPYALVIARFRKVDIVAVELNDEAVKLAQENVLLNKDKLKGKISIIHGDVFDVLPKLPSFDRVISPTPKGVDALALTLSKAKRFLHYYDFIHEDKLGEFKEKIIKECQKQGKECKVKVRKVADYKPHVYKVCADIEIK”, the “soluble on expression in E. coli” value is on record as “soluble”.
As for “MPRPSTCADSGGGMMTTLTARPEAITFDPQQSALIVVDMQNAYATPGGYLDLAGFDVSTTRPVIANIQTAVTAARAAGMLIIWFQNGWDEQYVEAGGPGSPNFHKSNALKTMRKQPQLQGKLLAKGSWDYQLVDELVPQPGDIVLPKPRYSGFFNTPLDSILRSRGIRHLVFTGIATNVCVESTLRDGFFLEYFGVVLEDATHQAGPKFAQKAALFNIETFFGWVSDVETFCDALSPTSFAHIA”, the entry is “not soluble”; as for “GLVAHSDLDERAIEALKEFNEDGALAVLQQFKDSDLSHVQNKSAFLCGVMKTYRQREKQGTKVADSSKGPDEAKIKALLERTGYTLDVTTGQRKYGGPPPDSVYSGQQPSVGTEIFVGKIPRDLFEDELVPLFEKAGPIWDLRLMMDPLTGLNRGYAFVTFCTKEAAQEAVKLYNNHEIRSGKHIGVCISVANNRLFVGSIPKSKTKEQILEEFSKVTEGLTDVILYHQPDDKKKNRGFCFLEYEDHKTAAQARRRLMSGKVKVWGNVGTVEWADPIEDPDPEVMAKVKVLFVRNLANTVTEEILEKAFSQFGKLERVKKLKDYAFIHFDERDGAVKAMEEMNGKDLEGENIEIVFAKPPDQKRKERKAQRQAAKNQMYDDYYYYGPPHMPPPTRGRGRGGRGGYGYPPDYYGYEDYYDYYGYDYHNYRGGYEDPYYGYEDFQVGARGRGGRGARGAAPSRGRGAAPPRGRAGYSQRGGPGSARGVRGARGGAQQQRGRGQGKGVEAGPDLLQ”, “soluble”.
As for “MQEIGILENLQKSLALKEGMLSYEMLGKSLSYNPYLPRVIPQTKDCVFVTPDEVLEKLLKENTHTDCVIVNFKGLYEIGAPSVFNLEVLGLLRRHASSLIVHQDLFISHYQLLESLVQGSDGVVLDEELLKEDLKGMVEFSWRLGLSVFVETHKQDYTHLKDLGVLGVLEKVPHSQNQKRIVFLD”, the entry is “not soluble”; as for “MPAVTQPRGESKYDAIPGPLGPQSASLEGKVALVTGAGRGIGREMAMELGRRGCKVIVNYANSTESAEEVVAAIKKNGSDAACVKANVGVVEDIVRMFEEAVKIFGKLDIVCSNSGVVSFGHVKDVTPEEFDRVFTINTRGQFFVAREAYKHLEIGGRLILMGSITGQAKAVPKHAVYSGSKGAIETFARCMAIDMADKKITVNVVAPGGIKTDMYHAVCREYIPNGENLSNEEVDEYAAVQWSPLRRVGLPIDIARVVCFLASNDGGWVTGKVIGIDGGACM”, “soluble”.
Then “MPSTVEKMETEEYGKPDPNRLTTKLFAEYDALHEKQQNGMDEKKTMELLEPSEVFEIYSPATMEIISIAKEEGDILSDQSLKFLNEALRYTVVPRGYSPQGVDARTTVKNVATITKDLVDIGKIVFEKFPKYLQFFGPFGSLLKDILDMTKPEKKDPVLEELGNLKSQLESLSQKMVVQFDELKAFMVEKDFYNNYAHKASLLFDYMIDCVATIDTKTKERFEECYNEIKPERYVRDMLIKLESDVTNPLKVSMAGDELTSKATFQKWKDVLNSTLSQFLLLECFAMGFLHPKDESDSKKIIEKITYYTTLVEQWEKHYLNDRPYWPKLKKYVERIQGEGSFDKDEDMATELKKGLDSILTEDNFYLYVFEKNVHYEIHVVKPEMVFVSTNRGKFSVIISRAFEHSEYTCGQYWKKLDNIMYRRIERSIWYALETHMKEFVQWAVASYAKNDFKGCSYFLAFSSRNVAVRWTRKHGAEKGPGFINWDGQLTVFNVTTGTWNMLYMVGE”, with “not soluble”; and “MSLMYSRKFQILKENIGLYHGDFMDFEVYDTEYMSIIFVKDRLDYTGKEIEPLWAFKTFDIQKDSIVVFRGRMEVTTENMKDLKDIKREKDIKTPIKSEDAINFVVEHFDVIDLKTIYLRQRLLVFIAKEVIESYNIKLKRDGDDLYFEDKKLSVCIACKGTVSAKIHLGINVKSKGAEHVKIIGLEDLGIKDIDKVMREIAINYAKEIDKIERDLRKTLPLIEGHHHHHH”, with “soluble”; and “MTLSSAGGSRSHRHNGGHSERDVEIRILKDKVRSLTKEKISLQKELEYYKNEITKLLSPPYIEAVVLEVIDDNRVVVKSSTGPNLIVNVAAGVDARSLKPGAIVALNNRGSTIVDVLPGRYDPLVKAMEVEERPKVFFKDVGGLEEQIREIYEAVVLPIKNPHLFRELGIDPPKGVLLHGPPGTGKTLLAKAVAGETEATFIRVVGSELVNKFIGEGARLVREIFRLAREKAPSILFIDEIDAIASKRVDIGTSGDREVQRTMLQLLAELDGFDPLDNVKVIAATNRLDLIDPAVLRPGRFDRIIEVPLPSLRGRLEILGIHTRKAKMAPDVDLEAIAKLTEGFSGADLKAVVVEAGYNAIRRGSRVITMDDMIKAVEKVKAALDKRGGGDPFIRAQQKSGDDTIATVI”, with “soluble”.
For the sequence “MSALEETQSLCKQVDDICNNGMESVEQCNKLLDQLSKIPMSIEIIQKTNIGIKVNMMRKKVTDDAVAKRAKNIIKDWKNVVDGKSKSQDDGGAPPAKKHRKESVEEAKPEKKKIEAPYKRPEPSSRPEIVAQFASASFPPKHLENDETRLKSAQLLLSALRFGDMPQGTLDPEELAVQIEEKLYSVHRDTNKSYSAAVRSRIFNLRDKKNLALRENVLTGVVRAEKFATMTSEEMASAEIREMRDKFTKEAILEHQMSVQQGTPSDMFKCGKCGKKNCTYTQLQTRSSDEPMTTFVFCLECGNRWKFC”, the “soluble on expression in E. coli” value is “soluble”.
For the sequence “MAHHHHHHMENVAKLQRQNASLKDRVSALEEQLAGATSSLARTGDCEQQISLLIERLGKEKERHKAVAEERNQLKDHLQDLEEEVEEYRTREEGWISGQERQQENEIAAQQRIAQLENDMRSCNAIVDNLTTQLTEAKHLNGVLQNQVKELKVSYSAQLDTVKESSSETVDQLRQEVEQLRSSLQNLSTEYDTRTAELEREVQNANMHAHQAEARLSEMALGSVNTLQDLRSELEDSQRSSATWKAEAQKARHEYTTLLEQYASLKRSRAAAEADLRDRLSYESNTVSALRKGIREWEDRYLALQESVGATQTEIEEQRKTIMQLEATIQKLKASGSDMLSPSQSEVVVSTNAPPVKASFSEPSLSGLPLDEILGRRLMPAPPLNPFMSMERPAWSDSRDRKTRERLEQEVVRQSAELERVRAAVADAEVWKAKYDRLQEEHDLLLQLYGQLEEDVSALRKNGAGILSADAAATSSTSGSVSAAAVP”, the “soluble on expression in E. coli” value is on record as “soluble”.
As for “MEEMLREIERILEWPRMLKATVISKGFSFDEKYKIELESGASYFIKVCDSSYFERKQEEYEYMQQLDSLHIPMPKLIHFISLTKFNKCVQVFEWIDGLDGEDNLRTLSTQTQYRAGKKAGEVIKKIHLVEKEDKSNSWEMSIWSKYERYLEALKEYEVDFFRLNTVIDFVGNHKDLLKNRPIVFLHDDFHPANIMIDQNEFRAVIDFARFDIGDPIHDFYKVALFTTNISKPFAVGQVHGYCGGEPDLHFWKLYSLYAAMIFPADIVWTNRSTPYLLDDMKERLNGILEDHNDFSSYIPKWYQSSEFNK”, the entry is “not soluble”; as for “MISIPKDEFQQIFVKDLMISSEKVAHVQIGNGLEHALLVLVKSGYSAIPVLDPMYKLHGLISTAMILDGILGLERIEFERLEEMKVEQVMKQDIPVLKLEDSFAKALEMTIDHPFICAVNEDGYFEGILTRRAILKLLNKKVRQHNR”, “not soluble”.
Then “MGESFTQAVVEGPQPKPSRFQFVPVPGEFTRGRWKCRDSYHPNAETLEFEKNKSKEEETNPDKISVFFKLRQQQQEPEPEPEPPQPPPQESTIQVTSVKSTRPDTGDPGDSEVVTTDSTESIIITRKNGVTIVRKTSNSLLLPDEKYDQIRQLSIDDFENKEKKQQVPPTPMNTPPASLAVVDTSIQSTTSETTPGHSSSRKPSKEDSSPFDASSATPAPSQLETPQQQKPTTTRHFQVEPVVLSEPSTPAPVAPAPSIETLTSTSPPVTQQLAPSLSEPTFQVIQTEESKNMSMDSVKNVVDAAALSAPAPAPLSQSDRLNHVDEVEGTTPSNVMITVSSAAAALEKKEEAAFAAAGSLDSCGIPISGGGAAAQTSAPHSTPYGTPKDTHIQQQQQPVVFEEILTANGPPPQPSSPLLPALITTTTSAPTIAPASSPIINASGSSIPAASTSGISLFPSGGVTSSLTTPSTTADTHTPIDNKIEQAMELVKTHLTYAVREEVDTLRNTIAELEYQMRESQYECTYYRQNCAPDLIEQASSFVHQQMASHQRPAARRAVSTAGIFDGSSSGGGGGQASSGASASASSAHMRNLQNQIQQMKQITPITTNTCINSTSTSTTAYTSTPTASIPAATAITTTTAPPKPSPTTSESSLITGDLGAPAGAVAQKMTTTNN”, with “not soluble”.
Then “MLNSVKKLLGDSQKRKLKKYEQLVQEINNLEEKLSDLSDEELRHKTITFKDMLRDGKTVDDIKVEAFAVVREAAKRVLGLRHYDVQLIGGLVLLEGNIAEMPTGEGKTLVSSLPTYVRALEGKGVHVITVNDYLAKRDKELIGQVHEFLGLKVGLNIPQIDPSEKKLAYEADITYGIGTEFGFDYLRDNMAASKNEQVQRPYHFAIIDEIDSVLIDEAKTPLIIAGKKSSSSDLHYLCAKVIKSFQDTLHYTYDAESKSASFTEDGITKIEDLFDIDNLYDLEHQTLYHYMIQALRAHVAFQCDVDYIVHDEKILLVDIFTGRVMDGRSLSDGLHQALEAKEGLEITEENQTQASITIQNFFRMYPALSGMTGTAKTEEKEFNRVYNMEVMPIPTNRPIIREDKKDVVYVTADAKYKAVREDVLKHNKQGRPILIGTMSILQSETVARYLDEANITYQLLNAKSAEQEADLIATAGQKGQITIATNMAGRGTDILLGEGVHELGGLHVIGTERHESRRVDNQLKGRAGRQGDPGSSQFFLSLEDEMLKRFAQEEVEKLTKSLKTDETGLILTSKVHDFVNRTQLICEGSHFSMREYNLKLDDVINDQRNVIYKLRNNLLQEDTNMIEIIIPMIDHAVEAISKQYLVEGMLPEEWDFASLTASLNEILSVENMPSLSANNVHSPEDLQSVLKETLSLYKERVNELDSNTDLQQSLRYVALHFLDQNWVNHLDAMTHLKEGIGLRQYQQEDPTRLYQKEALDIFLYTYGNFEKEMCRYVARHLGVPENVQ”, with “not soluble”.
